From paper doi:10.1101/2020.03.20.000893 (bioRxiv, 2020)

Target: the molecule itself
Assay: crystal structure

B1: K2P2.1_(cryst), engineered mouse K2P2.1 (TREK-1) (domain or fragment, UniProt P97438-2 21-322, looked up)
chain: SFSSKPTVLASRVESDSAINVMKWKTVSTIFLVVVLYLIIGATVFKALEQPQEISQRTTIVIQREKFLRAHPCVSDQELDELIQQIVAAINAGIIPLGASSNQVSHWDLGSSFFFAGTVITTIGFGNISPRTEGGKIFCIIYALLGIPLFGFLLAGVGDQLGTIFGKGIAKVEDTFIKWNVSQTKIRIISTIIFILFGCVLFVALPAVIFKHIEGWSALDAIYFVVITLTTIGFGDYVAGGSDIEYLDFYKPVVWFWILVGLAYFAAVLSMIGDWLRVIAKKTKEAVGEFRAHAAEWTANVT
binding result: binds
